Experimental data: patent US20190321483A1 (Novartis, published 2019)
Substitutions are numbered along the chain they refer to.

B1: Anti-cKIT Ab5 (antibody, human IgG1, lambda, V domains shown)
VH: QVQLVQSGAEVKKPGESLKISCKGSGYSFTNYWIAWVRQMPGKGLEWMGIIYPSNSYTLYSPSFQGQVTISADKSISTAYLQWSSLKASDTAMYYCARVPPGGSISYPAFDHWGQGTLVTVSS
VL: DIELTQPPSVSVSPGQTASITCSGDNIGSIYASWYQQKPGQAPVLVIYRDNKRPSGIPERFSGSNSGNTATLTISGTQAEDEADYYCSVTDMEQHSVFGGGTKLTVLG
notes: Full-length human IgG1, lambda light chain
B2: Anti-cKIT Ab4 (antibody, human IgG1, lambda, V domains shown)
VH: QVQLQQSGPGLVKPSQTLSLTCAISGDSVSTNSAAWNWIRQSPSRGLEWLGRIYYRSQWLNDYAVSVKSRITINPDTSKNQFSLQLNSVTPEDTAVYYCARQLTYPYTVYHKALDVWGQGTLVTVSS
VL: DIELTQPPSVSVSPGQTASITCSGDNLGDQYVSWYQQKPGQAPVLVIYDDTDRPSGIPERFSGSNSGNTATLTISGTQAEDEADYYCQSTDSKSVVFGGGTKLTVLG
notes: Full-length human IgG1, lambda light chain; also called IgG control for J4
B3: Anti-cKIT Ab1 (antibody, human IgG1, kappa, V domains shown)
VH: QVQLVQSGAEVKKPGSSVKVSCKASGGTFSSYAISWVRQAPGQGLEWMGVIFPAEGAPGYAQKFQGRVTITADESTSTAYMELSSLRSEDTAVYYCARGGYISDFDVWGQGTLVTVSS
VL: DIQMTQSPSSLSASVGDRVTITCRASQSISNYLAWYQQKPGKAPKLLIYDASSLQSGVPSRFSGSGSGTDFTLTISSLQPEDFATYYCQQYYYESITFGQGTKVEIKR
notes: Full-length human IgG1, kappa light chain; also called IgG control for J1
B4: Anti-cKIT Ab2 (antibody, human IgG1, kappa, V domains shown)
VH: QVQLVQSGAEVKKPGSSVKVSCKASGGTFSSHALSWVRQAPGQGLEWMGGIIPSFGTADYAQKFQGRVTITADESTSTAYMELSSLRSEDTAVYYCARGLYDFDYWGQGTLVTVSS
VL: B3 VL with S28D, N31Q, Y32D, T85V, E94L, S95P, I96S
notes: Full-length human IgG1, kappa light chain; also called IgG control for J2
B5: Anti-cKIT Ab3 (antibody, human IgG1, kappa, V domains shown)
VH: B3 VH with V50T, F52G, A54F, A57Q, G59R
VL: B3 VL
notes: Full-length human IgG1, kappa light chain; also called IgG control for J3

Biological target: T1, Rat cKIT D1-5, C-terminal mFc (rat)
T1 construct: also called rat cKIT-mFc
T1 chain: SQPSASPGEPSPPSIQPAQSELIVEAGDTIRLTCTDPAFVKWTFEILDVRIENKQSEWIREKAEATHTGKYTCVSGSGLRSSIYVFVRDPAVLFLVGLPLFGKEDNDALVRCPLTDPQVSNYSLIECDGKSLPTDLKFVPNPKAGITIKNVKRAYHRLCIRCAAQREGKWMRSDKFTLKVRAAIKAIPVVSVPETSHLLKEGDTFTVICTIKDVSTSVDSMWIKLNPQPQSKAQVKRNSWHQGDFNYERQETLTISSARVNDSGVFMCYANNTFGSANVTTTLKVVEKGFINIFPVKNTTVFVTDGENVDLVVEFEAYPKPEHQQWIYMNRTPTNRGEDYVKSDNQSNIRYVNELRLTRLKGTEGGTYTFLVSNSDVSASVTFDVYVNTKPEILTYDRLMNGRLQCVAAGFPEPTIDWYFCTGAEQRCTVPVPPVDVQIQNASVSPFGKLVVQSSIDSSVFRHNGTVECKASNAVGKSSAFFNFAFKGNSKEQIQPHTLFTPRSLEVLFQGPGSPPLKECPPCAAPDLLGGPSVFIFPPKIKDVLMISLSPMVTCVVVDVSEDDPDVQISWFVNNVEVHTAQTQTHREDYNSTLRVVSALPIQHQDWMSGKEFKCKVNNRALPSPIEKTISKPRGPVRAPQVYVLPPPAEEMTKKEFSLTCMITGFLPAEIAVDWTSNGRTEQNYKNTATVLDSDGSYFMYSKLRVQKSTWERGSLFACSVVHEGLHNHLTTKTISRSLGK
Assay: cross reactivity, Table 6 (Example 4: Biacore SPR, antibody captured, cKIT ECD in solution)

Binder | binding result
B1 | binds
B2 | binds

Biological target: T1, Rat cKIT D1-5, C-terminal mFc
Assay: cross reactivity, Table 6 (Example 4: Biacore SPR, antibody captured by anti-human Fc, cKIT ECD in solution)

Binder | binding result
B3 | no binding
B4 | no binding
B5 | no binding

Biological target: T2, Mouse cKIT ECD, C-terminal 6x His (Sino Biological Inc, Catalog number 50530-M08H) (mouse, UniProt P05532 25-527)
T2 construct: extracellular domain
T2 sequence: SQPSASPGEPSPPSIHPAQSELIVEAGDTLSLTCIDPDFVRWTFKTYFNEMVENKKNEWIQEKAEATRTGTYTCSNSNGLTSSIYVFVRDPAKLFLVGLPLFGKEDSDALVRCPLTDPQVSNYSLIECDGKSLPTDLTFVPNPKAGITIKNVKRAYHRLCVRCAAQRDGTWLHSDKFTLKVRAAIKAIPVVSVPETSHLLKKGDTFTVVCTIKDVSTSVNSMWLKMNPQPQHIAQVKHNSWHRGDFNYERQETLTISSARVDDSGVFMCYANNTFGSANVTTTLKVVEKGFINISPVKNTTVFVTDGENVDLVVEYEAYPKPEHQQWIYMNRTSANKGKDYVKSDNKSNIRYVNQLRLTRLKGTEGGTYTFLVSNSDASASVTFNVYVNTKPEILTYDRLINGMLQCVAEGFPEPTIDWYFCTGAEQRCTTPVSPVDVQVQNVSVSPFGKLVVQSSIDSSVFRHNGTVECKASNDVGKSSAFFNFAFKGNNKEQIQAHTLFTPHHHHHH
Assay: as above

Binder | binding result
B3 | no binding
B4 | no binding
B5 | no binding

Biological target: T3, Cynomolgus monkey cKIT D1-5 (cynomolgus monkey, UniProt P10721 26-524 (human entry))
T3 construct: also called cyno cKIT ECD
T3 chain: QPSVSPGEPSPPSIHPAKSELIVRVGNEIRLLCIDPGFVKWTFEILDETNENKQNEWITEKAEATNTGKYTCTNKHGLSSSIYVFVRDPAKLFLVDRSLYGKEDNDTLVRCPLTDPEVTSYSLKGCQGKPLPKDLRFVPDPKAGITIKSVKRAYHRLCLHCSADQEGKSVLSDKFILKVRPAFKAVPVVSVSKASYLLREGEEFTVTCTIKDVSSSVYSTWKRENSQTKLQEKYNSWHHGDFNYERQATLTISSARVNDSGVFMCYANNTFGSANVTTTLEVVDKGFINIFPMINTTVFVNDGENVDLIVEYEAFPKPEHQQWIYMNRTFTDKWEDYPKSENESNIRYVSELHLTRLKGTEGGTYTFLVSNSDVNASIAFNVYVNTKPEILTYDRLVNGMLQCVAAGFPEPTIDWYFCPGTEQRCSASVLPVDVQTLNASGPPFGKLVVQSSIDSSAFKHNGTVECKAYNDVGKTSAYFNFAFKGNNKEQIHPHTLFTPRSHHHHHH
Assay: 'in SET' by the column head; Example 4 describes Biacore SPR (antibody captured by anti-human Fc, cKIT ECD in solution)

Binder | Kd
B1 | 180 pM
B2 | 140 pM
B3 | 170 pM
B4 | 10 pM
B5 | 52 pM

Biological target: T4, Human cKIT D1-5 (extracellular domain) (human, UniProt P10721 26-524)
T4 construct: also called human cKIT ECD; full-length cKIT ECD
Assay: as above

T4 sequence (P10721 other isoform, or with tags, fused parts or gaps): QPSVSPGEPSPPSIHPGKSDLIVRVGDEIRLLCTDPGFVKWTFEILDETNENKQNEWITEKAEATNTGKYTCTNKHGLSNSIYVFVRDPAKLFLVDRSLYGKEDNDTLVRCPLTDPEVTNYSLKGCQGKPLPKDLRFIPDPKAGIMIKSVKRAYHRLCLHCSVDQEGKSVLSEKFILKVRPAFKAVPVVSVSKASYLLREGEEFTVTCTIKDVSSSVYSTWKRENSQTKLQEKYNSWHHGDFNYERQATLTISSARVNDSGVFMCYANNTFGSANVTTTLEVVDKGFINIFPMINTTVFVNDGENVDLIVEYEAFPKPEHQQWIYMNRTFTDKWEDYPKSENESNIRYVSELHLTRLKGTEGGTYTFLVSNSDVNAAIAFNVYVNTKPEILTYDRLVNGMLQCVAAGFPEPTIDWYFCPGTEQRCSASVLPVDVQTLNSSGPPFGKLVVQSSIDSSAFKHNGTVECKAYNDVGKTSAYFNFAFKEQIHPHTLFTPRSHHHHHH

Binder | Kd
B1 | 110 pM
B2 | 2400 pM
B3 | 94 pM
B4 | 7 pM
